First the molecules themselves.
B1: TRIM39 (parent)
chain: CKACITRWWEDLERDFPCPVCRKT
B2: TRIM43 (parent)
chain: RAQMIRNEYRKLHPVLHKEEKQHL

Here are results for 94 variants from the supplement of paper PMC10567573.
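Also: lentivirally expressed fusions sorted by FACS into six bins by GFP to DsRed ratio, PSI derived from sequencing read proportions per bin multiplied by bin number.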

Variants of B1 are the subject of one series. The series is described as follows: protein stability index of a GFP-peptide fusion (GPS, HEK-293T) (PSI 1-6); higher = more stable. The conditions noted are these: c terminus: a fixed tail appended.
Turning to CKACIIRWWEDLERDFPCPVCRKT, the protein stability index turned out to be 3.01.

CKACIDRWWEDLERDFPCPVCRKT: the protein stability index was found to be 4.27.

As for CKACIYRWWEDLERDFPCPVCRKT, the protein stability index was determined as 3.33.

For the variant CKACILRWWEDLERDFPCPVCRKT, the protein stability index is 3.58.

With CKACICRWWEDLERDFPCPVCRKT, the protein stability index was found to be 2.57.

As for CKACISRWWEDLERDFPCPVCRKT, the protein stability index was 3.62.

Take CKYCITRWWEDLERDFPCPVCRKT: the protein stability index came out at 3.9.

For the variant CKSCITRWWEDLERDFPCPVCRKT, the protein stability index was 4.21.

For CKICITRWWEDLERDFPCPVCRKT, the protein stability index is 3.9.

In the case of CKDCITRWWEDLERDFPCPVCRKT, the protein stability index worked out at 4.04.

Take CKPCITRWWEDLERDFPCPVCRKT: the protein stability index stood at 2.48.

With CKLCITRWWEDLERDFPCPVCRKT, the protein stability index stood at 3.8.

Consider CKNCITRWWEDLERDFPCPVCRKT, for which the protein stability index was 4.16.

For CKWCITRWWEDLERDFPCPVCRKT, the protein stability index was 2.87.

With CKVCITRWWEDLERDFPCPVCRKT, the protein stability index was 4.17.

For the variant CKFCITRWWEDLERDFPCPVCRKT, the protein stability index was found to be 3.17.

As for CKECITRWWEDLERDFPCPVCRKT, the protein stability index stood at 4.12.

As for CKHCITRWWEDLERDFPCPVCRKT, the protein stability index stood at 3.67.

For CKQCITRWWEDLERDFPCPVCRKT, the protein stability index was found to be 4.06.

In the case of CKRCITRWWEDLERDFPCPVCRKT, the protein stability index came out at 3.53.

With CKMCITRWWEDLERDFPCPVCRKT, the protein stability index is 3.35.

For CKCCITRWWEDLERDFPCPVCRKT, the protein stability index worked out at 3.57.

In the case of CKTCITRWWEDLERDFPCPVCRKT, the protein stability index worked out at 4.85.

With CKKCITRWWEDLERDFPCPVCRKT, the protein stability index worked out at 3.06.

As for CKGCITRWWEDLERDFPCPVCRKT, the protein stability index amounted to 4.09.

As to CQACITRWWEDLERDFPCPVCRKT, the protein stability index stood at 4.08.

As to CEACITRWWEDLERDFPCPVCRKT, the protein stability index was determined as 4.48.

Consider CHACITRWWEDLERDFPCPVCRKT, for which the protein stability index was found to be 4.08.

For the variant CSACITRWWEDLERDFPCPVCRKT, the protein stability index came to 4.59.

CGACITRWWEDLERDFPCPVCRKT: the protein stability index was found to be 3.59.

As to CMACITRWWEDLERDFPCPVCRKT, the protein stability index turned out to be 3.69.

Regarding CRACITRWWEDLERDFPCPVCRKT, the protein stability index came to 4.02.

On to CAACITRWWEDLERDFPCPVCRKT, for which the protein stability index is 4.08.

As for CPACITRWWEDLERDFPCPVCRKT, the protein stability index came to 4.11.

On to CDACITRWWEDLERDFPCPVCRKT, for which the protein stability index is 4.5.

Turning to CVACITRWWEDLERDFPCPVCRKT, the protein stability index stood at 3.53.

CWACITRWWEDLERDFPCPVCRKT: the protein stability index worked out at 3.23.

In the case of CNACITRWWEDLERDFPCPVCRKT, the protein stability index amounted to 4.4.

In the case of CFACITRWWEDLERDFPCPVCRKT, the protein stability index was 3.34.

Consider CYACITRWWEDLERDFPCPVCRKT, for which the protein stability index worked out at 4.23.

For the variant CLACITRWWEDLERDFPCPVCRKT, the protein stability index turned out to be 3.58.

For CIACITRWWEDLERDFPCPVCRKT, the protein stability index was 3.25.

On to CCACITRWWEDLERDFPCPVCRKT, for which the protein stability index is 3.64.

In the case of CTACITRWWEDLERDFPCPVCRKT, the protein stability index was determined as 4.05.

The next series covers variants of B2. The description is as above. The conditions noted are these: c terminus: a fixed tail appended.
Regarding RAQMIRNIYRKLHPVLHKEEKQHL, the protein stability index was 2.39.

As for RAQMIRNYYRKLHPVLHKEEKQHL, the protein stability index worked out at 2.51.

Consider RAQMIRNLYRKLHPVLHKEEKQHL, for which the protein stability index was 1.75.

For the variant RAQMIRNEVRKLHPVLHKEEKQHL, the protein stability index was found to be 3.91.

Consider RAQMIRNEARKLHPVLHKEEKQHL, for which the protein stability index was 4.04.

Regarding RAQMIRNETRKLHPVLHKEEKQHL, the protein stability index was determined as 4.08.

Regarding RAQMIRCEYRKLHPVLHKEEKQHL, the protein stability index is 3.

For the variant RAQMIRDEYRKLHPVLHKEEKQHL, the protein stability index amounted to 3.35.

Take RAQMIRNEYRKLHPVLHKENKQHL: the protein stability index was determined as 2.32.

In the case of RAQMIRNEYRKLHPVLHKECKQHL, the protein stability index was 2.57.

As for RAQMIRNEYRKLHPVLHKELKQHL, the protein stability index came to 1.83.

For RAQMIRNEYRKLHPVLHTEEKQHL, the protein stability index was found to be 3.06.

Regarding RAQMIRNEYRKLHWVLHKEEKQHL, the protein stability index worked out at 2.51.

For the variant RAQMIRNEYAKLHPVLHKEEKQHL, the protein stability index is 3.08.

In the case of RAQMIRNEYPKLHPVLHKEEKQHL, the protein stability index amounted to 3.76.

Consider RAQQIRNEYRKLHPVLHKEEKQHL, for which the protein stability index was 2.8.

Consider RAQMIRNEYRKLHPVLHKEEKLHL, for which the protein stability index was 2.33.

With RAQMIRNEYRKLHPVLHKEEKMHL, the protein stability index amounted to 2.3.

Regarding RAQMIRNEYRKLHPVLHKEEKQYL, the protein stability index worked out at 2.74.

With RATMIRNEYRKLHPVLHKEEKQHL, the protein stability index turned out to be 3.27.

As for RAQMIRNEYRKLIPVLHKEEKQHL, the protein stability index was 2.92.

As for RAQMIRNEYRKLYPVLHKEEKQHL, the protein stability index was 2.83.

In the case of RAQMIRNEYRKLSPVLHKEEKQHL, the protein stability index is 3.4.

Turning to RAQMIRNEYRKLFPVLHKEEKQHL, the protein stability index amounted to 2.82.

As for RAQMIRNEYRKLHPVLMKEEKQHL, the protein stability index is 2.81.

As to RAQMIRNEYRKLHPVLYKEEKQHL, the protein stability index came to 2.96.

On to RAQMIRNEYRKLHPVLSKEEKQHL, for which the protein stability index was found to be 2.67.

Turning to RAQMIRNEYRKLHPYLHKEEKQHL, the protein stability index was 2.7.

On to RAQMIRNEYRKLHPILHKEEKQHL, for which the protein stability index came to 3.09.

Turning to RAQMIRNEYRKLHPVLHKEEGQHL, the protein stability index was 2.42.

For RAQMIRNEYRKLHPVLHKEETQHL, the protein stability index was 2.92.

In the case of RAQMIRNEYRKLHPVLHKEEWQHL, the protein stability index came to 2.51.

In the case of RAQMIRNEYRKSHPVLHKEEKQHL, the protein stability index came to 4.43.

For the variant RPQMIRNEYRKLHPVLHKEEKQHL, the protein stability index came to 3.84.

For RWQMIRNEYRKLHPVLHKEEKQHL, the protein stability index was found to be 2.27.

Take RAQMIRNEYRKLHPVLHKEEKQHA: the protein stability index is 3.59.

Turning to RAQMIRNEYRKLHPVLHKEEKQHW, the protein stability index turned out to be 2.88.

Turning to RAQMIQNEYRKLHPVLHKEEKQHL, the protein stability index worked out at 3.63.

On to RAQMIRNEYRKLHPVLHKCEKQHL, for which the protein stability index stood at 2.71.

RAQMIRNEYRKLHPVLHKREKQHL: the protein stability index was 2.93.

In the case of RAQMIRNEYRKLHPVNHKEEKQHL, the protein stability index amounted to 3.95.

As to RAQMIRNEYRKLHPVIHKEEKQHL, the protein stability index amounted to 3.31.

In the case of RAQMIRNEYRKLHPVDHKEEKQHL, the protein stability index came to 4.12.

With RAQMIRNEYRKLHPVEHKEEKQHL, the protein stability index came to 4.04.

As to RAQMARNEYRKLHPVLHKEEKQHL, the protein stability index was determined as 4.03.

For the variant RAQMGRNEYRKLHPVLHKEEKQHL, the protein stability index stood at 3.79.

With LAQMIRNEYRKLHPVLHKEEKQHL, the protein stability index is 2.33.

Regarding EAQMIRNEYRKLHPVLHKEEKQHL, the protein stability index was determined as 3.29.

For the variant DAQMIRNEYRKLHPVLHKEEKQHL, the protein stability index was determined as 3.89.

In the case of FAQMIRNEYRKLHPVLHKEEKQHL, the protein stability index was determined as 1.92.
